The values that follow come from PMC2849977 (2009).

This assay deals with histone H3 peptide H3K4me3-K9me2 1-24 (Homo sapiens, UniProt P68431, H3K4me3+H3K9me2). Briefly: ITC.

B1: PHF8 1-447 (protein)
chain: MNRSRAIVQRGRVLPPPAPLDTTNLAGRRTLQGRAKMASVPVYCLCRLPYDVTRFMIECDMCQDWFHGSCVGVEEEKAADIDLYHCPNCEVLHGPSIMKKRRGSSKGHDTHKGKPVKTGSPTFVRELRSRTFDSSDEVILKPTGNQLTVEFLEENSFSVPILVLKKDGLGMTLPSPSFTVRDVEHYVGSDKEIDVIDVTRQADCKMKLGDFVKYYYSGKREKVLNVISLEFSDTRLSNLVETPKIVRKLSWVENLWPEECVFERPNVQKYCLMSVRDSYTDFHIDFGGTSVWYHVLKGEKIFYLIRPTNANLTLFECWSSSSNQNEMFFGDQVDKCYKCSVKQGQTLFIPTGWIHAVLTPVDCLAFGGNFLHSLNIEMQLKAYEIEKRLSTADLFRFPNFETICWYVGKHILDIFRGLRENRRHPASYLVHGGKALNLAFRAWTRKE
For orientation: Kd means a measure of binding affinity in units of concentration. The molecule B1 displayed a Kd of roughly 1000 nM.

B2: KIAA1718 1-488 (protein)
chain: MAGAAAAVAAGAAAGAAAAAVSVAAPGRASAPPPPPPVYCVCRQPYDVNRFMIECDICKDWFHGSCVGVEEHHAVDIDLYHCPNCAVLHGSSLMKKRRNWHRHDYTEIDDGSKPVQAGTRTFIKELRSRVFPSADEIIIKMHGSQLTQRYLEKHGFDVPIMVPKLDDLGLRLPSPTFSVMDVERYVGGDKVIDVIDVARQADSKMTLHNYVKYFMNPNRPKVLNVISLEFSDTKMSELVEVPDIAKKLSWVENYWPDDSVFPKPFVQKYCLMGVQDSYTDFHIDFGGTSVWYHVLWGEKIFYLIKPTDENLARYESWSSSVTQSEVFFGDKVDKCYKCVVKQGHTLFVPTGWIHAVLTSQDCMAFGGNFLHNLNIGMQLRCYEMEKRLKTPDLFKFPFFEAICWFVAKNLLETLKELREDGFQPQTYLVQGVKALHTALKLWMKKELVSEHAFEIPDNVRPGHLIKELSKVIRAIEEENGKPVKSQGI
For B2, the Kd was roughly 300 nM.
